Laboratory results taken from PMC9472616.

Assays:
[1] = molecular target: American mink ACE2 fused to mouse Fc (AmkACE2-mFc) (American mink (Neovison vison)); experiment: SPR
[2] = molecular target: European mink ACE2 fused to mouse Fc (EmkACE2-mFc) (European mink); experiment: SPR

**Q.** With “SARS-CoV-2 WT RBD (from UniProt P0DTC2 319-541) (domain or fragment)” as the substance, how does the Kd [1] read?
**A.** The Kd was 8.92 µM.

**Q.** What about the Kd [2] of the same substance?
**A.** The Kd was 52.8 µM.
